Experimental data from the domain aggregation screens of Martell et al. (2025).

Assay: soluble fraction after stress (log2 fold change); higher = more stays soluble; pooled small domains, quantitative proteomics
Conditions: stress: 50 degC
Method in brief: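 After stress at 50°C, the amount of each protein still soluble was measured. This was done on pooled custom libraries of small protein domains, using high-throughput quantitative proteomics. The figure given is a base-two log fold change and stands for aggregation propensity, with higher values meaning more protein stays in solution.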

Sequence | soluble fraction (log2)
HMSDGIPDLRNLNFLSPQEGDYLNESDRVFGVTINGDGQAYPLRIVNAHEMVNDTLGGEPISLM | 0.16
HMDPRTSSLTPQERKVLELVGGGLTNRQIAAEMFLAEKTVKNYVSSLLAKLGFERRTQAAVFIASPAF | -0.541
HMDFTISDADFHRLVQFIQQNYGVALSKKRQLISSRLSHSLRELGYKDFRTFLEHLFSTRDPADLELVLNK | -0.989
HMNADSLIGENIRISERVSNMDQTGMAVVHGQEWTVRTRNDNEIIEPGEEAKILAISGVKLIVEK | -0.119
HMSKQVDVVIYILENTKAADNTYIGTYRKTADGAGVSLDTATKVMRKLQENNFIKKVQNGVYQISPLIMM | -0.889
HMGTDFRPVFQYVDELVRAGEFTNLKGMIYFTDGRGIFPEKKPDYDAAFVFLDDGYDPPDVPVWAIKLVL | -0.161
HMVGADTISDLISQRGRMIGDKPITNAVIKSGSEFSTINALSKAIASGDARTNDVEGMKPVFR | -0.0638
HMNYTQAQIDRANAVSLEDFLRTQGETLIKSGREYRWKEHDSLTVRGNKWFRHSQSKGGYPIDFVMEFTA | 0.0368
HMDRVMPVPEALIGMRFDIAVSRMLGVSRSQAAAYIDRGQVSIAGRGSQRSAQKSEKLVQGDSIEVAIA | -0.318
HMEEYLENLTQSKLLHMLDQLSPAYKTVFTLFVLDELSHEEISKMLNISIGTSKSNLFRARKVMRVLMESE | -0.397
HMGSKDLPFSTFMSEIDKGNITSVDIRGNEIQGTFANGTKFRTYSPNYPNLVEKLNGKGVSITAGPV | 0.215
HMAALKVAVLTVSDTRTQETDTSGAFLEGALREAGHEIADRQIVIDDVYQLRAIVSQWIADPEVEVILT | -0.217
HMDPNAITSAQVTKLQVLANEKGFAERQARLTMWAEVIGRNVGTANELTKAEAHKLIEHMDALPV | -0.488
HMTAIKAGDLVKITGTKYYGGQTIPGWVKNQNWYVQEVSGDRAVINKNESGTNAIMSPIRVSDLTPVS | 0.183
HMVRSEDLIGLQGRITLATDVETRGFVELSVKGSLLRRPALSLKGPLAKNTAVVVTASNDHTLEVEAL | -0.573
HMEDLDKIISAYLDENPQIVSDYGKGNKKAVNSAIGFVMKSTGGKYSSSDIVDAVRSMIVSISV | -0.482
HMTTYSVDLGDIRAVADSDGKLVELTLHAAVTTHYSHSELADRLNLAFTALREEAQADYETRY | 0.127
HMAPMYGEFENVRLTDAQLDKLNARFPPEQVQREIEALSGYMRSKGKRYADHYATLLNWLRRDFPP | -0.202
HMHMIDDYLARIGQLIRDARQHRGWTQVQLAEALGTSQSAVNRIERGNQNISLEMIARIGEALGSEIVSLG | -1.62
HMEKTLAERVNDILAEIKMTKQELAMQLNISRSAVSQYLNGKYSSNPEAIEARLRDFVSSYDRG | -0.0754
HMKTERTVRVQDQHLHYTLEEKPIKNVNLRIRPDGSVYVSAPFGTSRTLIDDFVASKSKQILAIQQAQSAM | -0.0134
HMEDKFEYQGERKSLIYPTSFSELTEALGVRNMLQSIIDFATRDEDTSGYEEMKERQNEYIQEYL | 0.0302
HMKNEVENLSYMINRIIEYRDLNNLSNKNLANKIGISEALLSYILNGRRKLSKEIQRKIALFLLND | -1.49
HMSPGAKIEVTGNTVNLRAGPGTNYDTRGQVKKGEQLPLLGEQGGWYRVQTSRGVAYLAGWLARVLT | 0.0409
HMVKLSVGDIVQFAGGPHYVSSSAAKPASSPTAGPAKVTMIYQGAKHPYHIVHTTSASTVWGWVDADKVVK | -0.245

Sequence | soluble fraction (log2)
HMLQQNRAVEAEQLARKGLSYAQSNIQQAALWRLVAEATEQQGKVDAALNAKNKAMQLEMAG | 0.173
HMSTFTPYLVKVTTSVLNIRKGAGTNYGTNGSIRDMGTYTIVAEADGQGASKWGKLKSGAGWISLDYTKK | -1.94
HMEVGDTYLGKVTRVSSFGAFIEVLPGKEGLMRQNDAGEGGMPEVGDEVMVRVMEVDHLGRINLSGKLDD | -0.0268
HMGGDFVEHLKDLASEAPVIRLVNTIIGRVIDLRASDIHLEPFDDGLHVRYRVDGVIHPGELVPPRLS | 0.0558
HMGSIDYLVGSRLRQYRRLRGYSLIEFSAMLHRSKSAISKYERGEVSIDLRTLNEMARLLDIPLSGLLL | -4.56
HMAESTRSRILNAAIEMMETGGESSVRLSAIAEALGIKEPSIYHHFTNRTELVNAAYIEWYW | -0.0152
HMQASTGNVNTETLNLRKEASTSADILKLLSQGDEVEIVSESNGWYKVKYKDTEGFVSKEYITVN | 0.245
HMPKHDWDAFAGAIARRVHDHGMPVSQGELVRDMMDWFAGRKDFPPPDERTVRRKVSAIWRELNG | -1.02
HMGIKLSDRQMQIVEIVKSQQPITSEQVAERLNLTRAALRSDLSILTMAGILEARPKVGYSLTGR | -0.334
HMGKSKAAQSSLVRSIMHQISDKNRGPMPLSEIIDRASIQSIDEAIVRSLVSRMKEQGEIYEPSLGTYEF | -0.209
HMEQINVTIQTEKGRIDKVLSEHLPNHSRSQIQQWLKEKHVTVNGETVRANYKVTAGDEIVVTIPEPEV | 0.206
HMTMKQVFIETDANVNQKIMLNEKEAHHLFDVLRTSDKETIRVVTNTSQVFLARVQQKPYIYLFDKMTVE | -1.41
HMADYSGYLGKKGKVIAPLRPAGTALIDGERVDVVSFGDYIDKDSEIEVVKIEGSKLLVKKY | 0.141
HMSKPLEVFKLTSEPFGFSFNTALGRSYTVEATGDLGVWKAVELFQGSGGEIRFTAKPTSSGGAQFFRVFV | -0.0927
HMGQVAKPPLKELGADPVTGKPMVLKDGRFGPYVTDGEYNASLRKDDDIETIGVERAAELLQIRREKGP | -0.081
HMETGELQQILEDVFSKNIGIVQDKREAAFSILMGMIMAKSRGRADGALVSTLLKKKLTEFLATSDQVR | 0.0929
HMHFIMEYRIRAYVDELFESAPRTQRAYELKIELTQNLIDKYYALVSEGKSEQDAYNLTVMSIGDVREL | -0.298
HMALLSNEDIMFNLEFNRDLAVASNDGVSRDEFLRNKYGISEEEYNMLRARYGDGLNAARIKEYVGQRD | 0.104
HMIQMRVKVPKNIAGGSLMGAHHFVKSALARTNPGGSTSNYKIQATDGTPLTLGDLTARQYDEVLIISG | 0.0101
HMYKTKVDIAYDMLMERITEGVYKPGEKLVITHISKELGISDIPVREAIRRLESEGYVKILPNQGAIVYD | -0.395
HMKVKIFNGMKLVTNSTGLTVDGKPAALDESNADAKTYSQGLYVFIVYQSGKIAVMQDGKFLGYA | -1.77
HMVVVPPPATPKPGDVTGDNKINGYDLSILLSNWKRPGATLAQGDLNKDGVVNGLDLSIMLLNWG | -0.0393
HMQGDHELSQRILSYLSEQGGSSPLTDKASPEEIYRIFRVSKKKYKQALGNLYKSKSIIILADKIQLL | -0.736
HMGIAEGSSVFVRVLAAEDGGRYTVSFAGRRFSVLSRQALGIGSAFRADVKVEKGQVLLVPR | -2.37
HMPVQSNRDALLDIGQTLQVQAWDAQGSARVSYRGSDWTAEFRGPGAAAPGLHRIIAVQGNRLIVEPA | 0.174

Sequence | soluble fraction (log2)
HMNPYLWQRVRLLFSNVGVINNSATVDLVFSAPKGVLTEDLANNFSAALVKKGKEELGLDDIKITISVIPN | -2.94
HMGTRYVEFVIPGTGNHEVRIVSSNGSRQNVEVAGTYPGGARLRTKVDNGVRRVSFYVDNRLVEEKQ | 0.0416
HMKGWPDREQAEKIWQQGIDYAIEHHTMSPQIVKEYIFHTQGIARSAALIAARLPDMDTEKAYVLGLLHD | -0.214
HMIMTEKEKKLLNRYIMHDTIHKLYHEQNKSMRWIADNLGINFRTVQKYLDMDSGEFQKYSESISNR | -0.48
HMAPLATLEADGNGAVKLPNLAGHAIREVAAALGGANLALIPIGSGTSWKQNPAPGTILHKGDTVTVYF | -0.0832
HMNEMEWVAKLIDQLPERERMILQLREIEQYEFDQIASLMEIPEGTVRVYLSRIRKKIKKQFIEIQSH | 0.0739
HMFEDEYLETMYAFYETDPQALVRTGDLASSLKVSPASATEMVQRLASKGFVDYIPYKGASLTELGLAM | -0.184
HMYSYNKEEVGKRIKSIRQQKGLTQESFGELFGASKGNVATWEKGISLPNASRLREIADLVSITVEELLYG | -0.346
HMGVMTGAEFVGNTVASVERNLIIDTLKHTMGNRTTAANILGISIRTLRNKLKQYQNEGFDIPE | -0.703
HMSVLLKEEGSLQLARHGAAYFIIYSAQEHPNQRRHLKISEEESNRIMEGTPIEEIFLAYSG | -0.291
HMADGDIIPEGQRDATLASLAGSMRARGMTEAEILAALQVTNETRVRPPMALADLERIARSIGRYEPGK | 0.0818
HMDVNKDLLGETLEKAKSYKADDWRKASYEALQKAIVEAEAVYKDEEADQVAVDRKVAALNKAINNLEAKG | -0.234
HMTPPLSKIRNMTPDQQRSSVIEARKKGYNLLQLEGLAKAQGATPADLLVLRNAWAQSEFDQKR | 0.149
HMTEFFNMQDMFYFKLTGDVTSKERRQSLGKILGIGYGNAAQMVSRLNNYGITKEEFTNAINEIEKQMEAG | -0.775
HMYPATGTVVTAGGHLNMRSEPDRSGAILARIPNGTALTLTGKNGDWYAATYAGRSGYVSAQYISLS | -0.0468
HMTEDTPIIVERVVADIDENVVAIVRKFKDAFKSITAQREIKKKLRSILWVNYQIKDQEVFDKAYQYIEMY | 0.0204
HMAREQISVSQMVRDVRDGQVKNIEVLGQELRLSYADGSQKVTRKEEGQQALEILFASDIDLAALDLEVQ | 0.0848
HMGKTRSTDRTRRAILDAASDLMGKHGTSVSLARIAEAAGMSKGGLLHHFPSRNDLIRALGED | 0.189
HMAKRDEIEAELPRFVATITQELAASRDVLSMIEHYKQNSGPVFSAELDVLTADMRSGSYEAALTRFEARF | 0.0338
HMQNAETPDVAAEFRTWTSADGQFQVIAKLVKLDGESVHLERQDDGRQIAVPLGKLSSEDRLFLRGVRP | 0.0447
HMLTGISALKPTEAFPDEIFYEIFEIEDNIERTQYIESLRNTARQLKRVTEFNNLYKSFVLDYAQRQKQ | -1.51
HMDQFMLQSAWLRAVQHVMKHTDDVGTQFAEEARRMHYGEADERPIRGQATSDEARALHDEGIEVMALPI | -0.303
HMKEYRKEGHLYFVTEDRNNEIYLWDFTDKPKHEFKEIITSVELQKVAKEGAMLQYKNGKYELYS | -0.171
HMVTTTEAAKMLLVNAGHDVIKDGLTGASWASNTMKLADADGLLASVATKPNDALPRQYAAQMIYN | 0.076
HMQVSDEGAIQLLVQKAIEENPQAIEAFRGGKTSALGPVVGWVMKQSKGAANPTMVKTLLEKAI | 0.293
